Assay results as given in paper PMC5238724.

Target: Drosophila protamine B (Prot B), untagged recombinant (Drosophila)
Assay: non-reducing SDS-PAGE of disulfide-linked oligomers

## Drosophila protamine B (Prot B), untagged recombinant (natural protein)
  stoichiometry N: 2
